Molecular target: stratum corneum chymotryptic enzyme (SCCE), native, from human plantar stratum corneum (human)

Question: “soybean trypsin inhibitor (SBTI) (from UniProt P01070)” was tested. Which hydrolysis of S-2586 by the proteinase associated with plantar stratum corneum cells, Activity (%) did it give?
Answer: 6 % activity
